Series [1] relates to HCVcc-luc. The series can be described thus: Attachment versus post-attachment inhibition assay. The series is classed as cell-based, Hepatitis C virus. Conditions: heparin 200 μg/ml, anti-CD81 5 μg/ml, hEP 20 μg/ml, bafilomycin A1 10 nM. The procedure: (§1) FIGS. 5A-5D. hEP inhibits HCV entry at the attachment step. (A) HCVcc-luc was first mixed with either scrambled peptide or hEP-2 (20 μg/ml) for one hour at room temperature. In Group 1, mixed virus was directly added to Huh7.5.1 cells, whereas in Group 2, virus was purified through ultracentrifuge at 28,000×g for 4 hours in order to remove peptide, and then used to infect Huh7.5.1 cells. **p<0.005. (B) The kinetics of hEP- and bafilomycin A1-mediated inhibition were determined by time-of-addition assays, as described in the examples section. Fitted lines represent sigmoidal time-dependent curves (mean of n=3; error bars, s.d.). (C) HCVcc-Luc was added to Huh7.5.1 cells at 4° C. and incubated for 1.5 hrs. Unbound virus was removed by 2 washes with cold media, fresh media was added, and the cells were shifted to 37° C. to allow synchronous infection to proceed. Heparin (200 μg/ml), anti-CD81 monoclonal antibody (5 μg/ml), hEP (20 μg/ml), or bafilomycin A1 (10 nM) were present in the media either continuously, during the 4° C. incubation only (attachment), or during the 37° C. incubation phase only (post-attachment). % Inhibition was calculated as 100-percent infection relative to control infections containing DMSO or an isotype antibody control containing 0.01% sodium azide (for anti-CD81 only) (mean of n=3; error bars, s.d.). (D) The effects of hEP (2.7 μM) or scrambled peptide on HCV binding were determined as described in the examples section. Results were calculated as relative RNA copies with numbers obtained from the scrambled peptide treated wells set to 100 (mean of n=3; error bars, s.d.). **p<0.005.
To investigate the mechanistic action of hEP, three sets of experiments were conducted. First, hEP-2 (SEQ ID NO: 9) or scrambled peptide-treated HCVcc were purified through ultracentrifugation to remove the peptide and then used to infect naïve Huh7.5.1 cells. […] Second, to determine the kinetics of inhibition, a time-of-addition experiment was conducted. HCV remained sensitive to bafilomycin A1, a fusion inhibitor that prevents endosome acidification, until 3 hours after the 37° C. temperature shift (FIG. 5B), which is consistent with previous reports (Koutsoudakis et al., J Virol 2006; 80:5308-5320). […] In order to determine whether hEP-2 (SEQ ID NO: 9) blocks infection at the initial attachment step or a downstream event in the HCV entry process, hEP-2 (SEQ ID NO: 9) was either added together with HCVcc to cells during the 4° C. attachment step only, and then removed prior to shifting the temperature to 37° C., or added only after the temperature shift. As a positive control, hEP-1 was present during the entire course of the experiment. […] Finally, the direct binding of virions to cell surface was measured using a real-time PCR based assay.

Another series deals with DENY (Thailand 16681). The series can be described thus: Dengue virus infection of Huh7.5.1 cells (TCID50). The series is classed as cell-based.
Another series has as its system Huh7.5.1 cells. The series can be described thus: Cytotoxicity/cell viability assay (CellTiter-Glo). It is filed as cell-based. Conditions: 48 hours; hEP up to 100 μg/ml (~14 μM). The method, then: FIGS. 1A-1C. A human apoE derived peptide (hEP) suppresses HCV infection. (A) Schematic illustration of apoE protein domains and the amino acid sequences of hEP and mEP peptides. The amino acid sequences shown are hEP-1 (SEQ ID NO: 6) and mEP (SEQ ID NO: 20). (B) Dose dependent inhibition of HCVcc infection by hEP. Huh7.5.1 cells were infected with JFH-1 HCVcc-Luc (MOI˜0.5) in the presence of hEP or mEP for 2 hours. After removal of virus and peptides, cells were further incubated for 48 hours prior to luciferase assay. Data are presented as % inhibition relative to control infections in which cells were treated with DMSO (0%). Results are expressed as mean±standard deviation (s.d.) (n=3). (C). Huh7.5.1 cells were treated with hEP or DMSO at indicated doses for 48 hours. The effect of hEP on cell viability was measured by a CellTiter Glo assay kit.
Huh7.5.1 cells (10^5 per well) were treated with hEP or DMSO at various concentrations for 48 hours in 24-well plates. The numbers of viable cells in culture were determined using the CELLTITER-GLO® Cell Viability Luminescent Assay kit according to the manufacturer's instruction (Promega).

The subject of series [2] is HCVcc-luc. The series can be described thus: Time-of-addition assay. It is filed as cell-based, Hepatitis C virus. To be noted: 20 μg/ml (2.7 μM). The procedure:
as §1, with “bars, s.d.). […] Heparin (200” for “bars, s.d.). (C) HCVcc-Luc was added to Huh7.5.1 cells at 4° C. and incubated for 1.5 hrs. Unbound virus was removed by 2 washes with cold media, fresh media was added, and the cells were shifted to 37° C. to allow synchronous infection to proceed. Heparin (200”, “s.d.). **p<0.005. […]” for “s.d.). **p<0.005.”

For another series, the system named is OCLN. The series is described as follows: Immunoblot of OCLN. It is filed as cell-based. The procedure:
(§2) FIGS. 4A-4C. (A) Huh7.5.1 cells seeded in a 12-well plate were treated with hEP-2 (20 μg/ml) for indicated time periods. Cells were stained with a mouse IgG (istotype control) or the anti-LDLR antibody followed by flow cytometric analysis. An overlay of 7 histograms is presented and the Δ median fluorescence intensity (ΔMFI, LDLR stain minus isotype control stain) of each sample is indicated to the upper right of the figure. (B) Cells were stained with anti-CD81 antibody and analyzed similarly as in A. (C) Immunonblots of SR-BI, CLDN1, and OCLN in the presence of hEP-2 or scrambled peptide.
(In general: Immunoblotting shows a protein as a band on a membrane.)

For the next series, the system named is HCVpp. The series can be described thus: HCVpp infection of Huh7.5.1 cells. The series is classed as cell-based, Hepatitis C virus (H77, JFH1, J6 envelope).
The test system of series [3] is HCVcc-luc. The series is described as follows: Anti-HCV activity after pre-incubation of the peptide in cell culture. The series is classed as cell-based, Hepatitis C virus. To be noted: 20 μg/ml, 24 hours in culture before HCVcc-luc.
The next series deals with CLDN1. The series can be described thus: Immunoblot of CLDN1. It is filed as cell-based. The procedure:
as §2

The subject of a further series is CD81. The series can be described thus: CD81 level on Huh7.5.1 cells by flow cytometry. The series is classed as cell-based. The method, then:
as §2

Another series relates to SR-BI. The series can be described thus: Immunoblot of SR-BI. It is filed as cell-based. The method, then:
as §2

With “EELRVRLASHLRKLRKRLLRDADDLQKRLAVYEEQAQQIRLQAEAFQARLKSWFEPLVEDM [hEP-1]”, in the series on HCVcc-luc [1], the “Inhibition when present after the temperature shift only (post-attachment)” value is “very little inhibition” and the “Inhibition when present during the 4° C. attachment step only” value is “strongly inhibited”.

B1: hEP: human apoE dual-domain peptide: helix 4 of N-terminal domain plus major lipid-binding region; expressed in bacteria (protein)
peptide: EELRVRLASHLRKLRKRLLRDADDLQKRLAVYEEQAQQIRLQAEAFQARLKSWFEPLVEDM
Take B1: the “Effect on infectivity of DENY” value with DENY (Thailand 16681) is “did not affect the infectivity”. The “Cytotoxicity (cell viability)” value with Huh7.5.1 cells is given as “no cytotoxicity”. Besides, the “Activity when added after the temperature shift (time of addition)” value with HCVcc-luc [2] was “disappeared almost completely”. The “Effect on level of OCLN” value with OCLN is reported as “did not affect”. Besides, the “Effect on infectivity of HCVpp” value with HCVpp is on record as “did not affect the infectivity”. The “Anti-HCV activity after being left in the culture” value with HCVcc-luc [3] is reported as “largely retained”. Moreover, in the series on HIV-1, the “Effect on infectivity of HIV-1” value is given as “did not affect the infectivity”. The “Effect on level of CLDN1” value in the series on CLDN1 is recorded as “did not affect”. In the series on CD81, the “Effect on level of CD81” value is given as “did not affect”. In the series with SR-BI, the “Effect on level of SR-BI” value is “did not affect”.
